Results: paper PMC9482650, “Quantitative fragmentomics allow affinity mapping of interactomes” (Nature Communications, 2022)

T1: MPDZ_10, O75970
T1 sequence (O75970 1624-1722, limits assumed, looked up): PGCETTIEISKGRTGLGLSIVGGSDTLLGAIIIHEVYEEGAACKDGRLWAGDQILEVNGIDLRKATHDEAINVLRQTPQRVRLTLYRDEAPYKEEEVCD

T2: TIAM2, Q8IVF5
T2 sequence (Q8IVF5 885-986, limits assumed, looked up): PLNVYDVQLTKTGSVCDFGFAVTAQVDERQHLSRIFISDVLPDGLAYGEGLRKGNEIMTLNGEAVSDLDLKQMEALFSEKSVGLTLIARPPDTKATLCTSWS

T3: GRIP1_7, Q9Y3R0
T3 sequence (Q9Y3R0 999-1096, limits assumed, looked up): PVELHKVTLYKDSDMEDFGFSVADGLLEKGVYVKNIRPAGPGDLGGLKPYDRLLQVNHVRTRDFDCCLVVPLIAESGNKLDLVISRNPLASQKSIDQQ

T4: GRIP1_2, Q9Y3R0
T4 sequence (Q9Y3R0 145-248, limits assumed, looked up): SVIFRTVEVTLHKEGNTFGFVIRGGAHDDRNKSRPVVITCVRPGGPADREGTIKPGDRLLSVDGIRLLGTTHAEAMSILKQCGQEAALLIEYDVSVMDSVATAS

T5: LIN7A, O14910
T5 sequence (O14910 103-200, limits assumed, looked up): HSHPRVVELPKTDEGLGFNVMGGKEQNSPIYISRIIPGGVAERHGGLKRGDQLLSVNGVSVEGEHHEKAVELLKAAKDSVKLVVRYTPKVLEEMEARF

T6: NHERF3_1, Q5T2W1
T6 sequence (Q5T2W1 4-100, limits assumed, looked up): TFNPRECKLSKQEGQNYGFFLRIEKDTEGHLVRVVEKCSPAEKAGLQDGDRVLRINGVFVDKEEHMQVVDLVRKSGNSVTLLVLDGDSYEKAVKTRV

T7: APBA1_1, Q02410
T7 sequence (Q02410 651-752, limits assumed, looked up): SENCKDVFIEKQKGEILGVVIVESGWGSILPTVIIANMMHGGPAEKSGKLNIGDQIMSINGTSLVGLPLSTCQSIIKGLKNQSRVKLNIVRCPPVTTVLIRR

T8: PCLO, Q9Y6V0
T8 sequence (Q9Y6V0 4491-4600, limits assumed, looked up): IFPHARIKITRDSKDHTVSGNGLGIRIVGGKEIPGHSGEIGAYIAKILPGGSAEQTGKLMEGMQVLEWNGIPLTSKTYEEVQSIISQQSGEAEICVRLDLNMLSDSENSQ

T9: RADIL, Q96JH8
T9 sequence (Q96JH8 971-1071, limits assumed, looked up): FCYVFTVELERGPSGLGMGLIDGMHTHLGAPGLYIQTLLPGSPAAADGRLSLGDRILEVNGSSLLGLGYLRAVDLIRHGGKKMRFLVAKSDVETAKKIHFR

T10: GRIP1_3, Q9Y3R0
T10 sequence (Q9Y3R0 247-346, limits assumed, looked up): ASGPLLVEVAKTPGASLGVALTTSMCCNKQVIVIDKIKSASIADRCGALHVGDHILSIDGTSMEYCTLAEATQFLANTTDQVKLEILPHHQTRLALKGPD


Target: T1, MPDZ_10, O75970
Assay: holdup assay
Design: key: below the threshold = too weak to quantify, mostly under pKd 3.1 to 4
Settings: plain residues with an end cap or a label only (N-terminal biotin on a linker: ado-ado)

Binder | pKd
TGLWKHETTV [ADGRA3, Q8IWK6] | below the threshold

Target: GORASP2, Q9H8Y8
Assay: holdup assay
Design: key: below the threshold = too weak to quantify, mostly under pKd 3.1 to 4
Settings: plain residues with an end cap or a label only (N-terminal biotin on a linker: ado-ado)

Binder | pKd
TGLWKHETTV [ADGRA3, Q8IWK6] | 3.98

Target: T2, TIAM2, Q8IVF5
Assay: holdup assay
Design: key: below the threshold = too weak to quantify, mostly under pKd 3.1 to 4
Settings: plain residues with an end cap or a label only (N-terminal biotin on a linker: ado-ado)

Binder | pKd
TGLWKHETTV [ADGRA3, Q8IWK6] | below the threshold

Target: TJP1_2, Q07157
Assay: holdup assay
Design: key: below the threshold = too weak to quantify, mostly under pKd 3.1 to 4
Settings: plain residues with an end cap or a label only (N-terminal biotin on a linker: ado-ado)

Chain of TJP1_2, Q07157 (Q07157 181-274): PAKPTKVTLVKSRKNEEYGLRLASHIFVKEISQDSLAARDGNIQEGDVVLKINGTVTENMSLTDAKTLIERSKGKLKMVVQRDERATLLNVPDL

Binder | pKd
TGLWKHETTV [ADGRA3, Q8IWK6] | below the threshold

Target: LDB3, O75112
Assay: holdup assay
Design: key: below the threshold = too weak to quantify, mostly under pKd 3.1 to 4
Settings: plain residues with an end cap or a label only (N-terminal biotin on a linker: ado-ado)

Chain of LDB3, O75112 (O75112 1-94): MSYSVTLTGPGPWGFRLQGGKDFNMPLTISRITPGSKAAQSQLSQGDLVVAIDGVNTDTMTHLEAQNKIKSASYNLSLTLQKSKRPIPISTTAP

Binder | pKd
TGLWKHETTV [ADGRA3, Q8IWK6] | below the threshold

Target: T3, GRIP1_7, Q9Y3R0
Assay: holdup assay
Design: key: below the threshold = too weak to quantify, mostly under pKd 3.1 to 4
Settings: plain residues with an end cap or a label only (N-terminal biotin on a linker: ado-ado)

Binder | pKd
TGLWKHETTV [ADGRA3, Q8IWK6] | below the threshold

Target: DLG2_2, Q15700
Assay: holdup assay
Design: key: below the threshold = too weak to quantify, mostly under pKd 3.1 to 4
Settings: plain residues with an end cap or a label only (N-terminal biotin on a linker: ado-ado)

Binder | pKd
TGLWKHETTV [ADGRA3, Q8IWK6] | 5.4

Target: MAGI2_2, Q86UL8
Assay: holdup assay
Design: key: below the threshold = too weak to quantify, mostly under pKd 3.1 to 4
Settings: plain residues with an end cap or a label only (N-terminal biotin on a linker: ado-ado)

Chain of MAGI2_2, Q86UL8 (Q86UL8 410-522): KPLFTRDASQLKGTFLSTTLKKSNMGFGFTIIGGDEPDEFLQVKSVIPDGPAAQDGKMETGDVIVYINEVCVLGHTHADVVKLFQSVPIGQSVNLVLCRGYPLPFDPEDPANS

Binder | pKd
TGLWKHETTV [ADGRA3, Q8IWK6] | 5.22

Target: SCRIB_3, Q14160
Assay: holdup assay
Design: key: below the threshold = too weak to quantify, mostly under pKd 3.1 to 4
Settings: plain residues with an end cap or a label only (N-terminal biotin on a linker: ado-ado)

Chain of SCRIB_3, Q14160 (Q14160 999-1103): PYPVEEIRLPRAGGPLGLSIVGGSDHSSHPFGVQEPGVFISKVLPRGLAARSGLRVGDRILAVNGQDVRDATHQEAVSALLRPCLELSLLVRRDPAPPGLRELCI

Binder | pKd
TGLWKHETTV [ADGRA3, Q8IWK6] | 4.88

Target: AHNAK1, Q09666
Assay: holdup assay
Design: key: below the threshold = too weak to quantify, mostly under pKd 3.1 to 4
Settings: plain residues with an end cap or a label only (N-terminal biotin on a linker: ado-ado)

Chain of AHNAK1, Q09666 (Q09666 4-100): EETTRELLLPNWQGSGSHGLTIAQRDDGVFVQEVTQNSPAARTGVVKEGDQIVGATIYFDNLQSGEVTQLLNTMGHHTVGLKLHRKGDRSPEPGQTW

Binder | pKd
TGLWKHETTV [ADGRA3, Q8IWK6] | below the threshold

Target: T4, GRIP1_2, Q9Y3R0
Assay: holdup assay
Design: key: below the threshold = too weak to quantify, mostly under pKd 3.1 to 4
Settings: plain residues with an end cap or a label only (N-terminal biotin on a linker: ado-ado)

Binder | pKd
TGLWKHETTV [ADGRA3, Q8IWK6] | below the threshold

Target: TJP1_3, Q07157
Assay: holdup assay
Design: key: below the threshold = too weak to quantify, mostly under pKd 3.1 to 4
Settings: plain residues with an end cap or a label only (N-terminal biotin on a linker: ado-ado)

Chain of TJP1_3, Q07157 (Q07157 416-512): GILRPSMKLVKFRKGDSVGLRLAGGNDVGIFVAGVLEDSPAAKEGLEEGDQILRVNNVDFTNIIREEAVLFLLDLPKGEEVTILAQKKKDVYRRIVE

Binder | pKd
TGLWKHETTV [ADGRA3, Q8IWK6] | below the threshold

Target: GRID2IP_1, A4D2P6
Assay: holdup assay
Design: key: below the threshold = too weak to quantify, mostly under pKd 3.1 to 4
Settings: plain residues with an end cap or a label only (N-terminal biotin on a linker: ado-ado)

Chain of GRID2IP_1, A4D2P6 (A4D2P6 1-87): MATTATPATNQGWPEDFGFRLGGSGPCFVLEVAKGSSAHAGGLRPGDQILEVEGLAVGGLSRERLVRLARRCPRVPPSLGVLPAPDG

Binder | pKd
TGLWKHETTV [ADGRA3, Q8IWK6] | below the threshold

Target: NHERF4_4, Q86UT5
Assay: holdup assay
Design: key: below the threshold = too weak to quantify, mostly under pKd 3.1 to 4
Settings: plain residues with an end cap or a label only (N-terminal biotin on a linker: ado-ado)

Chain of NHERF4_4, Q86UT5 (Q86UT5 464-550): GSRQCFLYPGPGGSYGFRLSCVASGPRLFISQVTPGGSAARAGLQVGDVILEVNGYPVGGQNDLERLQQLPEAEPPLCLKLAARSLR

Binder | pKd
TGLWKHETTV [ADGRA3, Q8IWK6] | 3.87

Target: GRIP2_7, Q9C0E4
Assay: holdup assay
Design: key: below the threshold = too weak to quantify, mostly under pKd 3.1 to 4
Settings: plain residues with an end cap or a label only (N-terminal biotin on a linker: ado-ado)

Chain of GRIP2_7, Q9C0E4 (Q9C0E4 934-1023): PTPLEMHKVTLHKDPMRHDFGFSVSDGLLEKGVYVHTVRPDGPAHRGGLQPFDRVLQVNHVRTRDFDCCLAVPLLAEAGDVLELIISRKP

Binder | pKd
TGLWKHETTV [ADGRA3, Q8IWK6] | below the threshold

Target: DLG1_3, Q12959
Assay: holdup assay
Design: key: below the threshold = too weak to quantify, mostly under pKd 3.1 to 4
Settings: plain residues with an end cap or a label only (N-terminal biotin on a linker: ado-ado)

Binder | pKd
TGLWKHETTV [ADGRA3, Q8IWK6] | 4.78

Target: GOPC, Q9HD26
Assay: holdup assay
Design: key: below the threshold = too weak to quantify, mostly under pKd 3.1 to 4
Settings: plain residues with an end cap or a label only (N-terminal biotin on a linker: ado-ado)

Binder | pKd
TGLWKHETTV [ADGRA3, Q8IWK6] | 3.92

Target: T5, LIN7A, O14910
Assay: holdup assay
Design: key: below the threshold = too weak to quantify, mostly under pKd 3.1 to 4
Settings: plain residues with an end cap or a label only (N-terminal biotin on a linker: ado-ado)

Binder | pKd
TGLWKHETTV [ADGRA3, Q8IWK6] | 4.19

Target: T6, NHERF3_1, Q5T2W1
Assay: holdup assay
Design: key: below the threshold = too weak to quantify, mostly under pKd 3.1 to 4
Settings: plain residues with an end cap or a label only (N-terminal biotin on a linker: ado-ado)

Binder | pKd
TGLWKHETTV [ADGRA3, Q8IWK6] | 3.63

Target: T7, APBA1_1, Q02410
Assay: holdup assay
Design: key: below the threshold = too weak to quantify, mostly under pKd 3.1 to 4
Settings: plain residues with an end cap or a label only (N-terminal biotin on a linker: ado-ado)

Binder | pKd
TGLWKHETTV [ADGRA3, Q8IWK6] | below the threshold

Target: DLG1_1, Q12959
Assay: holdup assay
Design: key: below the threshold = too weak to quantify, mostly under pKd 3.1 to 4
Settings: plain residues with an end cap or a label only (N-terminal biotin on a linker: ado-ado)

Binder | pKd
TGLWKHETTV [ADGRA3, Q8IWK6] | 5.12

Target: GIPC2, Q8TF65
Assay: holdup assay
Design: key: below the threshold = too weak to quantify, mostly under pKd 3.1 to 4
Settings: plain residues with an end cap or a label only (N-terminal biotin on a linker: ado-ado)

Chain of GIPC2, Q8TF65 (Q8TF65 112-203): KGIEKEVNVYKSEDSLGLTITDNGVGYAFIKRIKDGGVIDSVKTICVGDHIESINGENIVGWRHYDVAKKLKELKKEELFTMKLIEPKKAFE

Binder | pKd
TGLWKHETTV [ADGRA3, Q8IWK6] | 4.1

Target: T8, PCLO, Q9Y6V0
Assay: holdup assay
Design: key: below the threshold = too weak to quantify, mostly under pKd 3.1 to 4
Settings: plain residues with an end cap or a label only (N-terminal biotin on a linker: ado-ado)

Binder | pKd
TGLWKHETTV [ADGRA3, Q8IWK6] | below the threshold

Target: T9, RADIL, Q96JH8
Assay: holdup assay
Design: key: below the threshold = too weak to quantify, mostly under pKd 3.1 to 4
Settings: plain residues with an end cap or a label only (N-terminal biotin on a linker: ado-ado)

Binder | pKd
TGLWKHETTV [ADGRA3, Q8IWK6] | 4.43

Target: MAGI2_3, Q86UL8
Assay: holdup assay
Design: key: below the threshold = too weak to quantify, mostly under pKd 3.1 to 4
Settings: plain residues with an end cap or a label only (N-terminal biotin on a linker: ado-ado)

Chain of MAGI2_3, Q86UL8 (Q86UL8 600-682): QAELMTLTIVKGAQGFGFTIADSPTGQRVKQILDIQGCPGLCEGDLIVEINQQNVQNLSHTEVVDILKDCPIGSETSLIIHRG

Binder | pKd
TGLWKHETTV [ADGRA3, Q8IWK6] | 4.02

Target: DLG2_3, Q15700
Assay: holdup assay
Design: key: below the threshold = too weak to quantify, mostly under pKd 3.1 to 4
Settings: plain residues with an end cap or a label only (N-terminal biotin on a linker: ado-ado)

Binder | pKd
TGLWKHETTV [ADGRA3, Q8IWK6] | 4.86

Target: T10, GRIP1_3, Q9Y3R0
Assay: holdup assay
Design: key: below the threshold = too weak to quantify, mostly under pKd 3.1 to 4
Settings: plain residues with an end cap or a label only (N-terminal biotin on a linker: ado-ado)

Binder | pKd
TGLWKHETTV [ADGRA3, Q8IWK6] | below the threshold

Target: Inadl_1, Q8NI35
Assay: holdup assay
Design: key: below the threshold = too weak to quantify, mostly under pKd 3.1 to 4
Settings: plain residues with an end cap or a label only (N-terminal biotin on a linker: ado-ado)

Chain of Inadl_1, Q8NI35 (Q8NI35 113-229): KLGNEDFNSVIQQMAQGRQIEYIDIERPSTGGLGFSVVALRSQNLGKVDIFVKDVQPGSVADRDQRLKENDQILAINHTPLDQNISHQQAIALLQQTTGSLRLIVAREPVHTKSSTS

Binder | pKd
TGLWKHETTV [ADGRA3, Q8IWK6] | below the threshold
